Measurements published in patent US20250320281A1.

Tests used:
Assay in all cases: cell-based or functional assay
[1] = molecular target: HIV-1 MGRM-C-028 envelope glycoprotein (Env) on pseudovirus (HIV-1)
[2] = molecular target: HIV-1 MGRM-A-010 envelope glycoprotein (Env) on pseudovirus (HIV-1)
[3] = molecular target: HIV-1 APV13 envelope glycoprotein (Env) on pseudovirus (HIV-1)
[4] = molecular target: HIV-1 92UG005 envelope glycoprotein (Env) on pseudovirus (HIV-1)
[5] = molecular target: HIV-1 MGRM-AG-005 envelope glycoprotein (Env) on pseudovirus (HIV-1)
[6] = molecular target: HIV-1 92RW020 envelope glycoprotein (Env) on pseudovirus (HIV-1)
[7] = molecular target: HIV-1 MGRM-D-001 envelope glycoprotein (Env) on pseudovirus (HIV-1)
[8] = molecular target: HIV-1 92BR020 envelope glycoprotein (Env) on pseudovirus (HIV-1)
[9] = molecular target: HIV-1 93UG077 envelope glycoprotein (Env) on pseudovirus (HIV-1)
[10] = molecular target: HIV-1 MGRM-C-027 envelope glycoprotein (Env) on pseudovirus (HIV-1)
[11] = molecular target: HIV-1 MGRM-D-018 envelope glycoprotein (Env) on pseudovirus (HIV-1)
[12] = molecular target: HIV-1 MGRM-C-026 envelope glycoprotein (Env) on pseudovirus (HIV-1)
[13] = molecular target: HIV-1 JRCSF envelope glycoprotein (Env) on pseudovirus (HIV-1) (UniProt P20871)
[14] = molecular target: aMLV envelope on pseudovirus (negative control virus)
[15] = molecular target: HIV-1 92TH021 envelope glycoprotein (Env) on pseudovirus (HIV-1)
[16] = molecular target: HIV-1 NL43 envelope glycoprotein (Env) on pseudovirus (HIV-1)
[17] = molecular target: HIV-1 CMU02 envelope glycoprotein (Env) on pseudovirus (HIV-1)
[18] = molecular target: HIV-1 APV17 envelope glycoprotein (Env) on pseudovirus (HIV-1)
[19] = molecular target: HIV-1 92UG024 envelope glycoprotein (Env) on pseudovirus (HIV-1)
[20] = molecular target: HIV-1 94UG103 envelope glycoprotein (Env) on pseudovirus (HIV-1)
[21] = molecular target: HIV-1 JRFL envelope glycoprotein (Env) on pseudovirus (HIV-1)
[22] = molecular target: HIV-1 93IN905 envelope glycoprotein (Env) on pseudovirus (HIV-1)
[23] = molecular target: HIV-1 APV6 envelope glycoprotein (Env) on pseudovirus (HIV-1)

B1: PGT-136 (5329_C19; 5366_P21) human monoclonal anti-HIV-1 antibody (antibody, V domains shown)
VH: QLQLQESGPGLVKPSETLSLTCTVSGGSMRGTDWGENDFHYGWIRQSSAKGLEWIGSIHWRGRTTHYKTSFRSRATLSIDTSNNRFSLTFSFVTAADTAVYYCARHKYHDIFRVVPVAGWFDPWGQGLLVTVSS
VL: EIVMTQSPPTLSVSPGETATLSCRASQNVKNNLAWYQLKPGQAPRLLIFDASSRAGGIPDRFSGSGYGTDFTLTVNSVQSEDFGDYFCQQYEEWPRTFGQGTKVDIK
1.96 µg/mL: neutralization IC90 [19]
0.0915 µg/mL: neutralization IC50 [19]
0.0285 µg/mL: neutralization IC80 [12]
0.0135 µg/mL: neutralization IC50 [22]
> 10 µg/mL: neutralization IC50 [1] | neutralization IC80 [1] | neutralization IC90 [1] | neutralization IC95 [1] | neutralization IC50 [2] | neutralization IC80 [2] | neutralization IC90 [2] | neutralization IC95 [2] | neutralization IC50 [3] | neutralization IC80 [3] | neutralization IC90 [3] | neutralization IC95 [3] | neutralization IC50 [4] | neutralization IC80 [4] | neutralization IC90 [4] | neutralization IC95 [4] | neutralization IC50 [5] | neutralization IC80 [5] | neutralization IC90 [5] | neutralization IC95 [5] | neutralization IC80 [6] | neutralization IC90 [6] | neutralization IC95 [6] | neutralization IC50 [7] | neutralization IC80 [7] | neutralization IC90 [7] | neutralization IC95 [7] | neutralization IC50 [8] | neutralization IC80 [8] | neutralization IC90 [8] | neutralization IC95 [8] | neutralization IC50 [9] | neutralization IC80 [9] | neutralization IC90 [9] | neutralization IC95 [9] | neutralization IC50 [10] | neutralization IC80 [10] | neutralization IC90 [10] | neutralization IC95 [10] | neutralization IC50 [11] | neutralization IC80 [11] | neutralization IC90 [11] | neutralization IC95 [11] | neutralization IC50 [13] | neutralization IC80 [13] | neutralization IC90 [13] | neutralization IC95 [13] | neutralization IC50 [14] | neutralization IC80 [14] | neutralization IC90 [14] | neutralization IC95 [14] | neutralization IC50 [15] | neutralization IC80 [15] | neutralization IC90 [15] | neutralization IC95 [15] | neutralization IC50 [16] | neutralization IC80 [16] | neutralization IC90 [16] | neutralization IC95 [16] | neutralization IC50 [17] | neutralization IC80 [17] | neutralization IC90 [17] | neutralization IC95 [17] | neutralization IC50 [18] | neutralization IC80 [18] | neutralization IC90 [18] | neutralization IC95 [18] | neutralization IC50 [20] | neutralization IC80 [20] | neutralization IC90 [20] | neutralization IC95 [20] | neutralization IC50 [21] | neutralization IC80 [21] | neutralization IC90 [21] | neutralization IC95 [21] | neutralization IC50 [23] | neutralization IC80 [23] | neutralization IC90 [23] | neutralization IC95 [23]
0.0623 µg/mL: neutralization IC80 [22]
0.738 µg/mL: neutralization IC50 [6]
0.619 µg/mL: neutralization IC80 [19]
5.97 µg/mL: neutralization IC95 [19]
0.379 µg/mL: neutralization IC95 [22]
0.156 µg/mL: neutralization IC90 [22]
0.0687 µg/mL: neutralization IC90 [12]
6.5 ng/mL: neutralization IC50 [12]
0.159 µg/mL: neutralization IC95 [12]
